The values below are quoted from earlier work in paper PMC13242166.

The data set addresses TRH1 receptor (Homo sapiens) (UniProt P34981). Nature of the data set: radioligand binding.
Chain of UniProt P34981 (P34981 whole entry): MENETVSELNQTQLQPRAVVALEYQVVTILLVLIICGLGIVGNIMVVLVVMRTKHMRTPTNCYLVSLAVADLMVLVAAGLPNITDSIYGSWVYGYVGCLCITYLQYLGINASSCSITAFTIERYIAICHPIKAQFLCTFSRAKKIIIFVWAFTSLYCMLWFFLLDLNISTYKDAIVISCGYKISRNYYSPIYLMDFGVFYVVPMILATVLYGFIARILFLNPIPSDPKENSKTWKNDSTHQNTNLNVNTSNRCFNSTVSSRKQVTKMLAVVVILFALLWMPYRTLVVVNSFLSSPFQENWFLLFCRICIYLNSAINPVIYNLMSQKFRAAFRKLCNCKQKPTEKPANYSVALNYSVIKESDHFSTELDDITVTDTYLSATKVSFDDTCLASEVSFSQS

As for TRH (from UniProt P20396), the Kd – broadly, the free concentration of one partner at which half of the binding sites on the other are occupied at equilibrium, for simple one-to-one binding – was 0.013 µM.
